± gives the standard deviation.

72 sequences from the supplement of paper PMC10567573 can be followed below.

The nature of this data set: protein stability index of a GFP-peptide fusion (GPS, HEK-293T) (PSI 1-6); higher = more stable.
[1] abbreviates: treatment: DMSO, c terminus: a fixed tail appended.
Setting [2] is: treatment: MLN4924 1 uM, 8 h, c terminus: a fixed tail appended.
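Note: 24-mer peptide tiles fused after GFP, lentivirally expressed, FACS-sorted into six equal bins by GFP/DsRed ratio, decoded by Illumina sequencing, PSI is the read-weighted mean bin number.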

The sequence NPAPAAPCPLGEPKTQACSGSESP [MYCL] had a protein stability index under setting [1] of 5.57 ± 0.23 and a protein stability index under setting [2] of 5.63 ± 0.15.
On the same counts, the results for NPFKERICRVFSTSPAKDSLSFED [CIB1] are 2.77 ± 0.21 and 2.75 ± 0.2.
The corresponding values for NPNLSNRRGSTPLHMAVERRVRGV [RIPK4] are 3.84 ± 0.56 and 4.47 ± 0.65.
The corresponding values for NPWNWGKLAEAYLNLGPALSAALA [C8orf76] are 2.57 ± 0.26 and 2.44 ± 0.15.
Regarding NQGLNVMVWNQNGKSPSITFEYTL [ADAMTSL2], the protein stability index is 3.01 ± 0.3 under setting [1] and 2.64 ± 0.53 under setting [2].
On the same counts, the results for NQNNYRLLSCGKILTGCKNMLFQQ [ACSBG2] are 2.9 ± 1.2 and 2.3 ± 0.69.
On the same counts, the results for NQVVSSTNGELNTDDPTAGRSNAP [CSNK1G3] are 5.41 ± 0.28 and 5.5 ± 0.17.
On the same counts, the results for NRRLRALEEQGATWRHRETLIIAV [FATE1] are 2.46 ± 0.39 and 2.22 ± 0.15.
With NSESWGWDIGRGKLYHQSKGPGAP [SPSB2], the protein stability index runs as follows: under setting [1], 3.63 ± 0.17; under setting [2], 3.98 ± 0.25.
On the same counts, the results for NSFGAILQGSLFGLAGLLPASYTA [SLC29A1] are 2.21 ± 0.27 and 2.9 ± 0.84.
NSNGGNLNSPPGPHSAKTEEHTTI [CDC14A]: the protein stability index runs as follows: under setting [1], 5.28 ± 0.17; under setting [2], 5.49 ± 0.2.
On the same counts, the results for NSVTAGDYSRPLHISTFINELDSG [TSN] are 3.54 ± 0.19 and 3.71 ± 0.18.
Take NTFFCHSNMCINNTLVCNGLQNCV [NETO1]: the protein stability index runs as follows: under setting [1], 2.13 ± 0.41; under setting [2], 2.07 ± 0.38.
The corresponding values for NTLRCQLGDRLNVEVDAAPAVDLN [KRT33B] are 4.47 ± 0.19 and 4.39 ± 0.22.
Consider NTNSDPLDPSFPVEFVRHGDIIRL [POMT2], for which the protein stability index is, setting by setting: under setting [1], 2.69 ± 0.38; under setting [2], 2.86 ± 0.28.
Turning to NVSVMHKSLDNMPNDEHWKALSRK [FBXO33], the protein stability index reads like this: under setting [1], 4.19 ± 0.089; under setting [2], 4.03 ± 0.14.
As to NYLAEHCPPLHIPGSMSEVQELCK [TNNI2], the protein stability index amounted to 3.91 ± 0.19 under setting [1] and 3.78 ± 0.11 under setting [2].
On the same counts, the results for PCQKSPNGVRVFPPAMPPPATHLS [TRIM9] are 3.63 ± 0.31 and 3.78 ± 0.15.
Regarding PCSGSVSLQPRRSIAFRLRLASFD [GMCL1], the protein stability index runs as follows: under setting [1], 2.58 ± 0.39; under setting [2], 2.24 ± 0.27.
The corresponding values for PCVRPGVSGSPVTQNHAASALPTG [FBF1] are 4.45 ± 0.26 and 4.5 ± 0.06.
Regarding PCYSRQFITSCPCWLEILLNNPR [SMAD6], the protein stability index came out at 2.92 ± 0.28 (treatment: DMSO, c terminus: native) and 2.77 ± 0.42 (treatment: MLN4924 1 uM, 8 h, c terminus: native).
Turning to PDGVWAYNRGEHPIFVNSPTLDAP [SMAD6], the protein stability index by setting is: under setting [1], 3.56 ± 0.34; under setting [2], 3.62 ± 0.16.
On the same counts, the results for PEEGQQPWLCGESFTLADVSLAVT [GDAP1] are 3.27 ± 0.23 and 3.4 ± 0.21.
For PFAPEPTPPTTTAEIATASASAST [SNAP91], the protein stability index worked out at 5.37 ± 0.16 under setting [1] and 5.41 ± 0.14 under setting [2].
On the same counts, the results for PFAYLTVLDLSKSLSAALLTAALL [POMT2] are 2.98 ± 0.23 and 3.02 ± 0.16.
The corresponding values for PFREQSFLCAAGDAGEESRVQVLK [TIAF1] are 4.54 ± 0.25 and 4.6 ± 0.16.
On the same counts, the results for PGAGVPSGSGGTVAPATMGSARSH [ZBTB22] are 4.75 ± 0.16 and 4.8 ± 0.15.
PGLLSLATTSASDSLKPEQLDIEE [TFE3]: the protein stability index runs as follows: under setting [1], 5.35 ± 0.23; under setting [2], 5.55 ± 0.17.
On to PGRGHTHAAQGGPLLCPGCQGQPQ [ELOA2], for which the protein stability index runs as follows: under setting [1], 4.38 ± 0.26; under setting [2], 4.47 ± 0.14.
On the same counts, the results for PGSMSEVQELCKQLHAKIDAAEEE [TNNI2] are 5.38 ± 0.27 and 5.36 ± 0.11.
The sequence PGYLPYSPEPPSLYGALNPQYEFK [IRX6] came in with a protein stability index under setting [1] of 2.87 ± 0.36 and a protein stability index under setting [2] of 3.16 ± 0.33.
The corresponding values for PHTPGKPTSSCTSRSAPPGLQAPP [FOXJ1] are 4.42 ± 0.19 and 4.86 ± 0.18.
The corresponding values for PKDIYSSFGFPRTVKHIDAALSEE [MMP1] are 3.9 ± 0.29 and 4.04 ± 0.23.
On the same counts, the results for PKKPIGGNIIAHASTTRLYLRKGR [RAD51] are 3.79 ± 0.29 and 3.74 ± 0.17.
Consider PKQLYFSARQGELQKVLLMLVDGI [EHMT1], for which the protein stability index is 2.66 ± 0.48 under setting [1] and 2.35 ± 0.58 under setting [2].
On the same counts, the results for PKTGRISVPIDLQKVDQFDPFTVP [PRIM1] are 3.6 ± 0.33 and 3.34 ± 0.25.
As for PKTVQQPTESEPVTINIQDLLSCS [MATN2], the protein stability index turned out to be 4.35 ± 0.17 under setting [1] and 4.32 ± 0.16 under setting [2].
Turning to PKVEYVWRNIILMSLLHLGALYGI [SCD], the protein stability index is, setting by setting: under setting [1], 3.26 ± 0.5; under setting [2], 3.48 ± 0.06.
For PLAVENQAGGEGAGGELGISLNMC [PBXIP1], the protein stability index amounted to 4.22 ± 0.25 under setting [1] and 4.12 ± 0.24 under setting [2].
On the same counts, the results for PLLCPSYQSYFKTIEELQQKILCS [KRT33B] are 2.56 ± 0.3 and 2.56 ± 0.17.
The corresponding values for PLLKDEGFAVKALWGRTQEEAEEL [GFOD1] are 5 ± 0.62 and 4.915 ± 0.038.
On the same counts, the results for PLSWAPCGPIAGSRQALSFEVPPC are 3.21 ± 0.29 and 3.07 ± 0.19.
As to PLTSTQGLEHAAAGGSSGTTARER [FBF1], the protein stability index is 5.36 ± 0.24 under setting [1] and 5.33 ± 0.3 under setting [2].
The corresponding values for PMAADEGSAEKQAGEAHMAADGET [EHMT1] are 5.6 ± 0.17 and 5.66 ± 0.082.
The corresponding values for PMPVSQECFETLRGDERILSILRH [CHGA] are 3.29 ± 0.23 and 3.02 ± 0.46.
The corresponding values for PMVARYIRINPQSWFDNGSICMRM [CPXM2] are 2.82 ± 1.1 and 1.95 ± 0.38.
For PNGVQLSPAEDFVLVAETTMARIR [APMAP], the protein stability index was 3.21 ± 0.21 under setting [1] and 3.5 ± 0.22 under setting [2].
On the same counts, the results for PPAALESSDSANTTIEDEDAKARK [CAMK2B] are 5.65 ± 0.15 and 5.7 ± 0.13.
On the same counts, the results for PPARGPRMSYGGSTCHAYSNTRDR [RBMY1A1] are 4.1 ± 0.098 and 4.07 ± 0.12.
On the same counts, the results for PPDTVSRTGLEKAAAGAVGLERRD [SPDEF] are 5.04 ± 0.15 and 5.29 ± 0.39.
Consider PPGAEEPQAPPASRDEAALPELLL [RETREG3], for which the protein stability index runs as follows: under setting [1], 5.25 ± 0.31; under setting [2], 5.39 ± 0.17.
On the same counts, the results for PPGLPRVSAYVDTTADLDRKLSFS [SPATS1] are 3.79 ± 0.26 and 3.96 ± 0.23.
As to PPKVKAEDGMQCLQLKETLATQEP [DLC1], the protein stability index runs as follows: under setting [1], 5.3 ± 0.17; under setting [2], 5.16 ± 0.2.
The corresponding values for PPLLGTFPRDHTSLALVQNGDVSA [ANKRD40] are 4.57 ± 0.21 and 4.4 ± 0.41.
The corresponding values for PPPPRSRGPPRGLRGGRGGSGGTR [RBMX] are 5.11 ± 0.5 and 4.96 ± 0.32.
On the same counts, the results for PPTVSQTPVIAATPVPTITANVTS [BRD3] are 4.83 ± 0.12 and 4.76 ± 0.18.
Regarding PPVRPAGYLLSFHTPGGQNQEILL [TNXB], the protein stability index came out at 2.38 ± 0.29 under setting [1] and 2.38 ± 0.31 under setting [2].
On the same counts, the results for PQDQAGPGGAPRVASRNLFPKDTL [CLPTM1] are 4.41 ± 0.36 and 4.61 ± 0.28.
PQELINYVQTVDFMRTDNTCVNLL [KLHL13]: the protein stability index stood at 2.46 ± 0.35 under setting [1] and 2.51 ± 0.42 under setting [2].
The corresponding values for PQPLSFKEPPLLLGVLHPNTKLRQ [APMAP] are 3.48 ± 0.17 and 3.59 ± 0.2.
The corresponding values for PSGTPELEVPKPGQPSEPEHGPSP [CHIT1] are 5.52 ± 0.25 and 5.47 ± 0.18.
For the sequence PSLSPGAFSYSSSSRFSSSRLLGS [PRPH], the protein stability index reads like this: under setting [1], 3.29 ± 0.23; under setting [2], 3.28 ± 0.16.
The corresponding values for PSRAKPPTEGAGSPAKASQASKLR [FBF1] are 5.16 ± 0.28 and 5.2 ± 0.2.
The corresponding values for PTESEPVTINIQDLLSCSNFAVQH [MATN2] are 3.56 ± 0.5 and 3.37 ± 0.43.
On the same counts, the results for PTFMIAVFLPIVVLIFKSILFLPC [STEAP1] are 3.22 ± 0.3 and 3.3 ± 0.46.
Take PVPATAPSPAPAVAAAAAATTAAT [SNAP91]: the protein stability index was 5.32 ± 0.16 under setting [1] and 5.25 ± 0.097 under setting [2].
For the sequence PYFKSNDVVCKNQDELRNRSVKVI [FAN1], the protein stability index reads like this: under setting [1], 3.78 ± 0.16; under setting [2], 4.01 ± 0.33.
As for QCSMPLHVAPLLAAAGLHASPMSA [NR2F2], the protein stability index was 2.58 ± 0.26 under setting [1] and 2.63 ± 0.24 under setting [2].
On the same counts, the results for QDLAFWYGPRWQEVIPYTPAMQRY [HMOX1] are 2.29 ± 0.2 and 2.36 ± 0.33.
The corresponding values for QEAFLVQEVVELPVTERQIEREHL [TBC1D10A] are 4.94 ± 0.25 and 4.71 ± 0.23.
On the same counts, the results for QEHKTDEMHTALMEACMDGHVEVA [ANKRD17] are 5.19 ± 0.4 and 5.31 ± 0.21.
As for QEKKRKFLESTDSFNNELKRLCGL [SMARCE1], the protein stability index is, setting by setting: under setting [1], 2.87 ± 0.41; under setting [2], 3.14 ± 0.69.
